Results: PMC3438978
pKd: −log10 of the molar value. Read-outs that look alike come from different tables or passages of the source.

What was measured:
Assay in all cases: SPR
[1] = target: Recombinant human IgE-Fc (composed of domains Cϵ2-Cϵ4) (human)
[2] = target: derCD23 (monomeric CD23 protein) (human) (UniProt P06734)
[3] = target: derCD23 (monomeric CD23 protein) (human) (UniProt P06734); remark: listed apart in the source
[4] = target: Recombinant human IgE-Fc (composed of domains Cϵ2-Cϵ4) (human); remark: listed apart in the source

Chain of UniProt P06734 (P06734 156-298): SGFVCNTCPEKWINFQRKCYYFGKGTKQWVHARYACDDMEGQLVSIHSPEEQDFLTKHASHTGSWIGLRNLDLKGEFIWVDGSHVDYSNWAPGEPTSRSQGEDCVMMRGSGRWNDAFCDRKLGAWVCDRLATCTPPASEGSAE

| Substance | pKd [1] | pKd [2] | also measured |
| --- | --- | --- | --- |
| derCD23 E265A (domain or fragment) | 5.60 |  |  |
| derCD23 R224A (from UniProt P06734 1-321) (domain or fragment) | 4.58 |  |  |
| IgE-Fc Q535A (domain or fragment) |  | 5.60 |  |
| derCD23 Y189A (from UniProt P06734 1-321) (domain or fragment) | 4.81 |  |  |
| IgE-Fc K435A (domain or fragment) |  | 5.30 |  |
| IgE-Fc D347A (domain or fragment) |  | 5.60 |  |
| derCD23 K276A (from UniProt P06734 1-321) (domain or fragment) | 4.96 |  |  |
| Recombinant human IgE-Fc (composed of domains Cϵ2-Cϵ4) (domain or fragment) |  | 5.64 | pKd [3]: 5.62 |
| derCD23 D236A (from UniProt P06734 1-321) (domain or fragment) | 5.24 |  |  |
| derCD23 L226A (from UniProt P06734 1-321) (domain or fragment) | 5.18 |  |  |
| IgE-Fc Q538A (domain or fragment) |  | 5.62 |  |
| IgE-Fc P439A (domain or fragment) |  | 5.60 |  |
| IgE-Fc K380A (domain or fragment) |  | 4.88 |  |
| derCD23 R188A (from UniProt P06734 1-321) (domain or fragment) | 4.60 |  |  |
| IgE-Fc E412A (domain or fragment) |  | 4.62 |  |
| IgE-Fc R351A (domain or fragment) |  | 5.59 |  |
| derCD23 E257A (from UniProt P06734 1-321) (domain or fragment) | 4.57 |  |  |
| IgE-Fc K352A (domain or fragment) |  | 5.42 |  |
| derCD23 D192A (from UniProt P06734 1-321) (domain or fragment) | 5.37 |  |  |
| IgE-Fc D409A (domain or fragment) |  | 4.58 |  |
| derCD23 D227A (from UniProt P06734 1-321) (domain or fragment) | 4.51 |  |  |
| IgE-Fc R376A (domain or fragment) |  | 4.71 |  |
| derCD23 (monomeric CD23 protein) (from UniProt P06734 156-298) (domain or fragment) | 5.64 |  | pKd [4]: 5.64 |
